These results are taken from paper PMC12187842, “A novel molecule targeting neutrophil-mediated B-1a cell trogocytosis attenuates sepsis-induced acute lung injury” (Frontiers in Immunology, 2025).

B1: recombinant mouse (rm)Siglec-G (receptor, UniProt Q80ZE3 18-543, looked up)
chain: QMESYFLQVQRIVKAQEGLCIFVPCSFSSPEGKWLNRSPLYGYWFKGIRKPSLSFPVATNNKDKVLEWEARGRFQLLGDISKKNCSLLIKDVQWGDSTNYFFRMERGFERFSFKEEFRLQVEALTQKPDIFIPEVLEPGEPVTVVCLFSWTFNQCPAPSFSWMGDAVSFQESRPHTSNYSVLSFIPGLQHHDTELTCQLDFSRMSTQRTVRLRVAYAPRSLAISIFHDNVSVPDLHENPSHLEVQQGQSLRLLCTADSQPPATLSWVLEDQVLSWSSPVGSRTLALELPWVKAGDSGHYTCQAENRLGSQQHTLDLSVLYPPQDLRVTVSQANRTVLEILRNAISLPVLEGQSLCLVCVTYSNPPANVSWAWVTQTLIPIQSSEPGVLELPLVQREHEGEFTCAAQNPLGAQRISLSLSVHYPPQMSSPSCSWEAKGLHCNCSSRAWPAPSLRWRLGEGLLEGNSSNASFTVTFSSLGPWVNSSLSLLQELGPSLWLSCESWNTHGAQTTSVLLLPDKDSATAFSK
notes: Siglec-G, mouse, recombinant; UniProt Q80ZE3 is printed for the in silico model; check the vendor's data sheet; source: bought: R&D Systems (Cat. No. 10103-SL-050)
B2: recombinant mouse CD47 (receptor, UniProt Q61735 19-140, looked up)
chain: QLLFSNVNSIEFTSCNETVVIPCIVRNVEAQSTEEMFVKWKLNKSYIFIYDGNKNSTTTDQNFTSAKISVSDLINGIASLKMDKRDAMVGNYTCEVTELSREGKTVIELKNRTVSWFSPNEK
notes: CD47, mouse, recombinant; UniProt Q61735 is printed for the in silico model; check the vendor's data sheet; also called rmCD47; source: bought: Abcam (Cat. No. AB231160)

The assay “recombinant mouse CD47” deals with B2. The assay is described as follows: SPR; same setting as a1 (rmCD47 immobilised on HS-carboxyl sensor); peptide C11 at 1 µM preincubated for 30 minutes with rmSiglec-G at 100, 250 and 500 nM, then injected. Particulars: both partners purified. On the technique in general: Surface plasmon resonance follows binding to a sensor surface in real time, without labels.

For the next assay, the target named is rmCD47. The assay is described as follows: Surface plasmon resonance: rmSiglec-G binding to immobilized rmCD47. As to conditions: SPR (OpenSPR), rmCD47 immobilized on HS-carboxyl sensor, rmSiglec-G analyte 100, 250 and 500 nM, PBS 0.05% P20, pH 7.4, 20°C, 1:1 global fit; no C11; read-out: dissociation constant (KD) Siglec-G/CD47. Also noted: species or system mouse. On the procedure: To examine the direct interaction between recombinant mouse (rm)Siglec-G (Cat. No. 10103-SL-050, R&D Systems, Minneapolis, MN) and rmCD47 (Cat. No. AB231160, Abcam, Cambridge, UK), surface plasmon resonance (SPR), using OpenSPR (Nicoya, Ontario, Canada), was performed. HS-Carboxyl sensor was used; rmCD47 was immobilized on the sensor surface; rmSiglec-G was in the reaction buffer, working as an analyte. Binding reactions were performed in PBS 0.05% P20, pH7.4. The carboxyl sensor was first cleaned by injecting 150 µL of 10 mM HCl, followed by injection of 150 µL of the mixture of 1 aliquot of N-ethyl-N′-[3-[…]]-carbodiimide (EDC) and 1 aliquot of N-hydroxysuccinimide (NHS) to activate the sensor surface. […] To evaluate the binding, the analyte ranging from 100 nM, 250 nM and 500 nM were injected into flow cell-1 and flow cell-2, and the real-time interaction data were analyzed by TraceDrawer (Nicoya). […] For peptide C11 efficacy on Siglec-G binding to CD47, with the same setting as Siglec-G binding with CD47 on HS-carboxyl sensor, peptide C11 at 1 µM preincubated with concentrations of rmSiglec-G 100 nM, 250 nM & 500 nM for 30 minutes and then injected into flow cell-1 and flow cell-2, and real-time interaction were analyzed ab TraceDrawer (Nicoya). […]

Assay [1] concerns the target B1. The assay is described as follows: SPR; OpenSPR (Nicoya), HS-Carboxyl sensor; rmCD47 immobilised by EDC/NHS coupling; rmSiglec-G as analyte at 100, 250 and 500 nM; PBS 0.05% P20, pH 7.4; 40 uL/min; 20°C; global fit for 1:1 binding. Particulars: both partners purified.

Regarding B1, in the assay with recombinant mouse CD47, the “KD in the presence of 1 µM C11” value is 155 nM. Moreover, the Kd on rmCD47 is 10.8 nM.

Turning to B2, in assay [1], the Kd was determined as 10.8 nM.
